Values quoted from earlier work, collected in article PMC11544004.

Tests used:
[1] = target: PVR (CD155) (Homo sapiens) (UniProt P15151)
CD86 (Homo sapiens) = CD86 (Homo sapiens) (UniProt P42081)
CD80 (Homo sapiens) = CD80 (Homo sapiens) (UniProt P33681)
UniProt P33681, sequence (P33681 35-242): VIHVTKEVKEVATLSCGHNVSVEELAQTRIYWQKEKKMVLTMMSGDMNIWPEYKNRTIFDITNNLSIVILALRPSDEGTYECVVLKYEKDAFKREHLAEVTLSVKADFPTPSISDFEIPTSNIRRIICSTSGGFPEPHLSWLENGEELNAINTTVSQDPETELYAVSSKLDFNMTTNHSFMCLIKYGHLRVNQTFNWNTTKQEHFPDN

UniProt P15151, sequence (P15151 21-343): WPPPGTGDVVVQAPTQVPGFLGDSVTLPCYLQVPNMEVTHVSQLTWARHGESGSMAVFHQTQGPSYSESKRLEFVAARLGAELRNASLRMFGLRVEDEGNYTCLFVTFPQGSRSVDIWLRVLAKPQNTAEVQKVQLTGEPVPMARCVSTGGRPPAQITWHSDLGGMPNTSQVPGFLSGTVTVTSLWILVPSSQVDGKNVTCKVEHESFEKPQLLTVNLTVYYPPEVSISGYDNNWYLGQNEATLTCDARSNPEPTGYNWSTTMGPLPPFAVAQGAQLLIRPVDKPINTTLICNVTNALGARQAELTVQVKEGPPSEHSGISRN
UniProt P42081, sequence (P42081 24-247): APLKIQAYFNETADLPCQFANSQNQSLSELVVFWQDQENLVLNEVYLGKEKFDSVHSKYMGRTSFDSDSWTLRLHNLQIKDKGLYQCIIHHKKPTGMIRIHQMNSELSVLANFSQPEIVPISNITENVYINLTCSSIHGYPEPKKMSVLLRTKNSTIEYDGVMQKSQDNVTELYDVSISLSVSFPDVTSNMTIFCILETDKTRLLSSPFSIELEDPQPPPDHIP

TIGIT (from UniProt Q495A1)
Kd [1]: 0.002 µM

CD28 (from UniProt P10747)
Kd (CD86 (Homo sapiens)): 20 µM | Kd (CD80 (Homo sapiens)): 4 µM
